Positions count from the first letter of the chain named. In names and notes the source's numbering stands. Several values for one entry are separate records, joined by “and”; a condition that tells them apart may be missing. Identical values can stand only once.
Legend:
HBV DNA replication = HBV DNA replication in pHBV-transfected HepG2 cells; format: cell-based, hepatitis B virus; settings: cells transfected with mutant HBV genome HBx(G124L, I127A); 5 μM
Method: Quantification of HBV DNA replication and HBcAg. Southern hybridization analysis and quantitative real-time PCR were used to quantify the amount of HBV replication DNA intermediates isolated from HepG2 cells or from mouse livers. The level of cytoplasmic HBcAg was measured by chemiluminescence using a commercial assay kit.
Southern Blot Analysis. HepG2 cells (3×10 cm plate per sample) transfected with the pHBV replicon (wild-type or mutant) were washed twice with cold phosphate-buffered saline (PBS) and lysed in 750 μl NET buffer (50 mM Tris-HCl pH 7.5, 1 mM EDTA, 100 mM NaCl, 0.5% Nonidet P-40) per 10 cm plate for 1 hour. HepG2 cell lysates were clarified by centrifugation at 12000 g for 30 minutes at 4° C. The supernatant was adjusted to 6 mM CaCl2 and treated with 100 μg/ml of Micrococcal nuclease for 30 minutes at 37° C. The reaction was stopped by addition of EDTA to a final concentration of 25 mM. […]
Quantitative Real-Time PCR Analysis. […] The pHBV plasmid was used as the standard for quantification and serial dilutions from 2×10^8 to 200 IU/ml were prepared. The primer sequences for quantitative PCR were chosen carefully from regions coding for HBV S antigen and Polymerase. […] PCR products were analyzed by fluorescence. […] The measured raw copy number from each reaction was calculated using the CT value of each PCR interpolated against the linear regression of the standard curve. […]

CED-9 (C. elegans) = CED-9 (C. elegans) (UniProt P41958); assay: isothermal titration calorimetry; peptaibol TK titrated into CED-9
[1] = test system: cytosolic Ca^2+ in PLM neurons; assay: Cameleon FRET cytosolic calcium imaging in PLM neurons (bzIs17); format: in vivo, C. elegans
From the text: Calcium imaging and analysis. A C. elegans strain with an integrated Pmec-4YC2.12 cameleon transgene (bzIs17) was used to quantify relative cytosolic calcium levels in PLM neurons by the FRET microscopy.
Calcium Imaging and Analysis in C. elegans. A C. elegans strain with an integrated Pmec-4YC2.12 cameleon transgene (bzIs17) was used to quantify relative cytosolic calcium levels in PLM neurons. Animals at the L1 larval stage were immobilized on a 2% agar pad in a solution containing 0.3 M 2,3-butanedione monoxime and 10 mM HEPES (pH 7.2). PLM neurons were visualized using an Axioplan 2 Nomarski Microscope (Zeiss) equipped with a SensiCam CCD camera (PCO Imaging Kelheim, Germany). […] The FRET ratio was calculated by (FRETPLM−FRETbkgnd)/(CFPPLM−CFPbkgnd), where FRETPLM and CFPPLM are the mean fluorescent intensities in the FRET and CFP channels of the PLM neuron and FRETbkgnd and CFPbkgnd are the mean fluorescent intensities in the FRET and CFP channels of a background region adjacent to the PLM neurons.
A C. elegans strain carrying an integrated transgene (bzIs17) that expresses a cameleon Ca^2+ sensor under the control of the mec-4 gene promoter was used to monitor intracellular Ca^2+ in six touch cells through the fluorescence-resonance energy transfer (FRET) assay.

PLM neurons = assay: PLM touch cell killing by HBx in C. elegans; format: in vivo
Method: The presence of GFP-positive PLM neurons was scored using a Nomarski microscope. The data are shown in three categories: both PLM missing (black bars), one PLM missing (gray bars) and no PLM missing (white bars). The y axis represents percentage of each category. Percentage numbers under columns indicate the total PLM missing percentage in each experiment. More than 40 animals were scored in each experiment.
C. elegans strains and cell death assays. Animals were grown and maintained using standard protocols. Germline transformation was used to generate transgenic C. elegans strains expressing HBx and other genes. […] PLM killing by HBx was scored as described in Nat Struct Mol Biol., 2008, 15, 1094-1101.
Quantification of PLM Killings by HBx. PLM neurons were scored in L4 larvae in the presence of the integrated transgene, smIs98 or bzIs8, using a Nomarski microscope equipped with epifluorescence.
Chemical Treatment of C. elegans. Worms were treated with chemicals using an oil-base protocol. […] L4 larval stage hermaphrodite animals were placed onto standard NGM plates seeded with OP50. Oil solutions containing the chemicals were spread (0.8-1.0 ml) onto each plate so that the NGM surface was completely covered by oil. Worms lived at the interface of the NGM medium and the oil. F1 progeny was examined for PLM cell death or the FRET ratio in PLMs.

Bcl-2 family proteins = assay: cell-based or functional assay
CED-9 [2] = biological target: T1, CED-9 (Caenorhabditis elegans, UniProt P41958); assay: Isothermal titration calorimetry (ITC), titration of CED-9; format: binding, C. elegans; settings: no peptaibol TK
T1 sequence (P41958 1-280): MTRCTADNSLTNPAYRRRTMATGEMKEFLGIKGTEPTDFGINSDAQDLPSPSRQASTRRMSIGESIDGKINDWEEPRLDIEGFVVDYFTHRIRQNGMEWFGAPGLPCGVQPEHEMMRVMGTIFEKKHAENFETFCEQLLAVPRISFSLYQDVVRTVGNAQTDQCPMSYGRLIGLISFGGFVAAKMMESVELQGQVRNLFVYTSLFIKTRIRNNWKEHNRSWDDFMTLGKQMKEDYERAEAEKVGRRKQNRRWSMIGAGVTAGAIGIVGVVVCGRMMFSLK

CED-9 [3] = biological target: T2, CED-9 (C. elegans, UniProt P41958 1-251); assay: isothermal titration calorimetry
T2 sequence (looked up): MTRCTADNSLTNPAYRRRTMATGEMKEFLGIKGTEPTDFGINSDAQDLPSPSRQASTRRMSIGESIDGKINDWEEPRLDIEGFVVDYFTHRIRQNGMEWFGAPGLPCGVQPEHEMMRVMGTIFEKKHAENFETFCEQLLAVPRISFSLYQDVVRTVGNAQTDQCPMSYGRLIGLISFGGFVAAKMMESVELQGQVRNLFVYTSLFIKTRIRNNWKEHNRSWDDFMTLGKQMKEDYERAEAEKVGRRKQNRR

[4] = biological target: CED-9 pre-incubated with peptaibol TK (C. elegans; Trichoderma pseudokoningii) (UniProt P41958); assay: isothermal titration calorimetry; CED-9 pre-incubated with peptaibol TK, titrated with EGL-1
[5] = biological target: T3, CED-9 (in C. elegans animals) (C. elegans, UniProt P41958 1-280); assay: cell-based or functional assay
T3 sequence: T1 sequence (P41958 1-280)

Mcl-1 [6] = biological target: T4, Mcl-1 (human, UniProt Q07820 1-350); assay: co-immunoprecipitation with anti-HBx antibody from pHBV-transfected HepG2 cells, immunoblot
T4 construct: also called anti-apoptotic Bcl-2 family member Mcl-1

Mcl-1 [7] = biological target: T4, Mcl-1; assay: co-immunoprecipitation with anti-Flag antibody from HepG2 cells, immunoblot
human Bcl-xL [8] = biological target: T5, human Bcl-xL (human, UniProt Q07817 1-233); assay: as above
T5 construct: also called endogenous Bcl-xL

human Bcl-xL [9] = biological target: T5, human Bcl-xL; assay: co-immunoprecipitation with anti-HBx antibody from pHBV-transfected HepG2 cells, immunoblot
[10] = biological target: T6, CED-9(68-251; G169E)-His6 (C. elegans, UniProt P41958 68-251); assay: GST pull-down, immunoblot
T6 construct: range 68-251; also called CED-9(G169E); mutant CED-9(G169E) protein
T6 sequence: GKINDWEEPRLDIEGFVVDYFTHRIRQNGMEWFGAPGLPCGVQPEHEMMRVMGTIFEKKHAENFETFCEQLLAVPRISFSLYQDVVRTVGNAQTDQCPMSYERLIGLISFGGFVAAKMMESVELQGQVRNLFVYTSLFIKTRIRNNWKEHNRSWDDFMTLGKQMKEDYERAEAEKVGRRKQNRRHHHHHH

His6-mBax(1-173) = biological target: T7, His6-mBax(1-173) (mouse, UniProt Q07813 1-173); assay: GST pull-down, immunoblot
T7 construct: range 1-173; also called mouse Bax(1-173)
T7 sequence (Q07813 other isoform, or with tags, fused parts or gaps limits assumed): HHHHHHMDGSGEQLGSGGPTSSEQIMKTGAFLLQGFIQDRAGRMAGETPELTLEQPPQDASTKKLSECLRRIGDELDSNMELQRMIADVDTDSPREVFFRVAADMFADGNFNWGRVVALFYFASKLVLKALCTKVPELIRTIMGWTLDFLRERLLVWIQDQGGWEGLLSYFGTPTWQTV

T5 sequence (Q07817 whole entry): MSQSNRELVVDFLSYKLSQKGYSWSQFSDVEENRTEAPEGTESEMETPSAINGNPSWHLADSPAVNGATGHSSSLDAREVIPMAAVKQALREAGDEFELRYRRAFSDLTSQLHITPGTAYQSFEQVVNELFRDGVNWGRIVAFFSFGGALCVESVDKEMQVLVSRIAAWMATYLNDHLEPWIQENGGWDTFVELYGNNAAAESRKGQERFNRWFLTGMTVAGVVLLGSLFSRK
T4 sequence (Q07820 whole entry): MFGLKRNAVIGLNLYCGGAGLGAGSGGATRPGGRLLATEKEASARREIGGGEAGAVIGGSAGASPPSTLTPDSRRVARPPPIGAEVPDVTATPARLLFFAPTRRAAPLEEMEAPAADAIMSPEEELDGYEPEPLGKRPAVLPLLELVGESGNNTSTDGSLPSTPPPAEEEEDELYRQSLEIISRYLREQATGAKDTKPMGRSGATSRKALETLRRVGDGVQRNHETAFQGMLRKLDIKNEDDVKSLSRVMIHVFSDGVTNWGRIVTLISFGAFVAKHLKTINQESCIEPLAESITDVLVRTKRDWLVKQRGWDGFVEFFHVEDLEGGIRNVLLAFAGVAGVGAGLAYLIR

Question: For `C[C@H](CCC(=O)O)C[C@H](C)C[C@H](C)C(=O)/C=C(\O)[C@H](C)C[C@H](C)C/C=C/[C@@H](C)[C@@H](O)[C@@H](C)[C@@H](O)C[C@@H]1CC[C@@](C)([C@H]2CC[C@@](C)([C@@H](C)O)O2)O1` [ionomycin], which “HBV DNA replication” value (HBV DNA replication) is on record?
Answer: largely rescued

Question: With peptaibol TK (peptide) as the molecule, how does the Ka (CED-9 (C. elegans)) read?
Answer: 42600 M⁻¹

Question: For `C/C=C(/C)C(=O)O[C@H]1C(C)=C2[C@H]([C@@H]1OC(=O)CCCCCCC)[C@@](C)(OC(C)=O)C[C@H](OC(=O)CCC)[C@@]1(O)[C@H]2OC(=O)[C@@]1(C)O` [thapsigargin], which “FRET ratio in PLM neurons” value ([1]; bzIs17 animals, vs untreated or vector-treated animals) is on record?
Answer: significantly higher

Question: Which results are given for cyclosporin A [CsA]?
Answer: percentage of missing PLM (PLM neurons; smIs98 animals that normally lost 50% of PLM neurons): 15%; PLM death (PLM neurons; smIs98 animals with loss of ced-3): 4%; HBx-induced cytosolic Ca^2+ increase (FRET ratio) ([1]; bzIs17, asp-3(tm4559), smIs451 animals): completely suppressed

B1: HBx(G124L, I127A), P03165 1-154 (protein)
chain: MAARLCCQLDPARDVLCLRPVGAESRGRPFSGSLGTLSSPSPSAVPTDHGAHLSLRGLPVCAFSSAGPCALRFTSARRMETTVNAHQILPKVLHKRTLGLSAMSTTDLEAYFKDCLFKDWEELLEEARLKVFVLGGCRHKLVCAPAPCNFFTSA
Question: Which results are given for B1?
Answer: reduction in HBV DNA replication against the wild-type HBV genome, Q-PCR of viral particles from HepG2 cells (Bcl-2 family proteins): 8 fold and 9 fold; reduction of replicative DNA intermediates in mouse liver against the wild-type pHBV replicon, southern blot (Bcl-2 family proteins): 2 to 3 fold

B2: EGL-1 (other, C. elegans, UniProt O61667 16-106, looked up)
chain: MSNVFDVQSSVFYNEKNMFYSSSQDFSSCEDSSQFADDSGFFDDSEISSIGYEIGSKLAAMCDDFDAQMMSYSAHASDRSLFHRLLDFFAF
notes: also called BH3-only protein EGL-1
Question: For B2, which “binding affinity of EGL-1 to CED-9” value (CED-9 [2]) is on record?
Answer: 4.04e+06 M⁻¹

Question: What about the Ka (CED-9 [3]) of the same molecule?
Answer: 4.04e+06 M⁻¹

Question: And the Ka [4]?
Answer: 1.52e+08 M⁻¹

Question: What about the fold of the binding affinity between CED-9 and EGL-1 without peptaibol TK [4] of the same molecule?
Answer: 38 fold

B3: HBV x protein (HBx) (other)
chain: B1 chain with L124G, A127I
notes: also called hepatitis B virus X protein
Question: What does the source list for B3?
Answer: FRET ratio of cameleon Ca2+ sensor in PLM neurons (cytosolic Ca2+) [5]: 40%; binding result (Mcl-1 [6]): no binding

B4: Flag-HBx (other)
chain: B1 chain with L124G, A127I
notes: also called pcDNA3.1-Flag-HBx
Question: Does B4 bind (Mcl-1 [7])?
Answer: no binding

B5: Flag-HBx(G124L, I127A) (other)
chain: B1 chain
notes: also called pcDNA3.1-Flag-HBx(G124L, I127A)
Question: Does B5 bind (human Bcl-xL [8])?
Answer: no binding

B6: HBx(G124L, I127A) (other)
chain: B1 chain
notes: also called mutant pHBV
Question: Does B6 bind (human Bcl-xL [9])?
Answer: no binding

B7: GST-HBx (other)
chain: B1 chain with L124G, A127I
notes: also called pGEX-4T-2-HBx
Question: Does B7 bind [10]?
Answer: no binding

Question: Does B7 bind (His6-mBax(1-173))?
Answer: no binding

Source: patent US10155020B2, “Compositions and methods for treating hepatitis B” (The Regents of the University of Colorado, a body corporate, priority 2012, dated 2018)
